Measurements from article PMC5547898.

Target: Myc-tagged metabotropic glutamate receptor 5 (Myc-mGluR5) (UniProt P41594)
Experiment: co-IP

UniProt P41594, sequence (P41594 21-1212): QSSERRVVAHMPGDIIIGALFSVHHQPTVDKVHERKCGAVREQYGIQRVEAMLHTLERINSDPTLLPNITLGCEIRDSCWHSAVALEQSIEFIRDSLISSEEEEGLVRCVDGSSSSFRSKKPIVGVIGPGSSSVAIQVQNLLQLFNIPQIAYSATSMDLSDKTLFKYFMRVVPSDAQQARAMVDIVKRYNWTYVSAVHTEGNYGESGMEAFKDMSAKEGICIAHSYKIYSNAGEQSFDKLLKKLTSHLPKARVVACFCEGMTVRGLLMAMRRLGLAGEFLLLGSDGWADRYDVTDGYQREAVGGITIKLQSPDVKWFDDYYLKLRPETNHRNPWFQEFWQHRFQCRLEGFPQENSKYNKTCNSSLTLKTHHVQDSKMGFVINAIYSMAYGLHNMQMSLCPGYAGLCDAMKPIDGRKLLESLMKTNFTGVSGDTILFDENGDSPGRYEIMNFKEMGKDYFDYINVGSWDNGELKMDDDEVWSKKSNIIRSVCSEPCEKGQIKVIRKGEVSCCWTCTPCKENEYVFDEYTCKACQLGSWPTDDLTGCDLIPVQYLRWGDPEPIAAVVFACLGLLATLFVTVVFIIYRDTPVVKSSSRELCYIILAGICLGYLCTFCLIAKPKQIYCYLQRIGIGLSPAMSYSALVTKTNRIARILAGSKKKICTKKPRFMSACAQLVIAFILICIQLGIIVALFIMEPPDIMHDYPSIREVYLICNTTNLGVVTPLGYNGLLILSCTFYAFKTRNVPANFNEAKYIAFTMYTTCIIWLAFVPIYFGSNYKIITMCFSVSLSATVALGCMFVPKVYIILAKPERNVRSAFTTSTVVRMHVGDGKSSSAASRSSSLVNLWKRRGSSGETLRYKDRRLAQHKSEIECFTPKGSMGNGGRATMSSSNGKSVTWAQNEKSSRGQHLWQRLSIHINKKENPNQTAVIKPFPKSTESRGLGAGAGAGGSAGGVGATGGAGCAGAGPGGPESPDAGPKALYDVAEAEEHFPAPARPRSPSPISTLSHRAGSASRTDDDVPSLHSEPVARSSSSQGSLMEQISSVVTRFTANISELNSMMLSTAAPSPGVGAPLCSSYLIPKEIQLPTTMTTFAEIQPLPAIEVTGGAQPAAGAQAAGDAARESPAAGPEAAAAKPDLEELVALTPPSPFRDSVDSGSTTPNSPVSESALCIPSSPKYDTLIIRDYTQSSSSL

cellular prion protein (PrP^C) (from UniProt P04156 23-230) (natural protein)
fold increase of the co-immunoprecipitate with Aβo against without Aβo: > 2 fold
